Results published in the supplement of paper PMC9170038.

What was measured:
Conditions in all cases: FMN input: 0 or 200 uM; Eterna round: R93 (includes R88 designs)
MS2 coat protein [1] = assay: apparent KD of MS2 coat protein, switch ON state; designed switch direction (-1 OFF switch, 1 ON switch): 1; higher = weaker reporter binding
In short: (§1)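 With or without constant ligand, designed RNA switches in 100 mM Tris-HCl pH 7.5, 80 mM KCl and 4 mM MgCl2 were titrated with SNAP-549-labelled MS2 coat protein. Concentrations went up in twofold steps from 0.7 or 1.5 nM to 3 µM. The switches had been transcribed on-chip from Illumina sequencing clusters, and apparent KD is the per-design median of normalised cluster binding-curve fits.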

MS2 coat protein [2] = assay: apparent KD of MS2 coat protein, switch OFF state (with FMN for OFF switches, without FMN for ON switches); designed switch direction (-1 OFF switch, 1 ON switch): 1; higher = weaker reporter binding
In short: as §1

MS2 coat protein [3] = assay: apparent KD of MS2 coat protein, switch ON state; designed switch direction (-1 OFF switch, 1 ON switch): -1; higher = weaker reporter binding
In short: as §1

MS2 coat protein [4] = assay: apparent KD of MS2 coat protein, switch OFF state (with FMN for OFF switches, without FMN for ON switches); designed switch direction (-1 OFF switch, 1 ON switch): -1; higher = weaker reporter binding
In short: as §1

Sequence	apparent KD of MS2 coat protein (MS2 coat protein [1])	apparent KD of MS2 coat protein (MS2 coat protein [2])	apparent KD of MS2 coat protein (MS2 coat protein [3])	apparent KD of MS2 coat protein (MS2 coat protein [4])
UGGAGACAUGAGGAUCACCCAUGUGAGAAGAGGCGAGGAUAUCGAAAGAAAGAAGAGAAACGAGAAGGCGCGAGGA [salish99-SS1-039]	47.6 nM	49.8 nM	–	–
CGGAGACAUGAGGAUCACCCAUGUGAGAAGAGGCGAGGAUAUUGAAAGAAAGAAGAGAAAUGAGAAGGCGCGAGCC [salish99-SS1-083]	55.3 nM	38.1 nM	–	–
AAAUAAAGAUACUAGGAUAUCCCGUGAGGUACAUGAGGAUCACCCAUGUGUAACGAACUCCCGCGGGAGAAGGAGUUGCACACGA [Inanuserra]	38 nM	52.4 nM	–	–
GGGAGGAAGAGAGAGGAUAUCCAAAGGAAAACAUGAGGAUCACCCAUGUAAAAGGUAGGAAAUUGGGAGAAGGCUCAAAAGAUGG [salish99-ss2-046]	70.5 nM	22.3 nM	–	–
AAAUACUAAGGAUAUACAUGAGGAUCACCCAUGUACAAACCCGUGGAACGGAUCGUUAGUAGAAGGUGGACAAA [Zaanrion]	–	–	15.6 nM	15.4 nM
AAAAGCAAAGGAUAUACAUGAGGAUCACCCAUGUAAAAAAGAAAAGAGUAUAUGGCAUGUAGAAGGUUGCGUGG [Rabisoxe]	–	–	26.2 nM	54.9 nM
AACAGGUCAGGAUAUGUGGAAAAAAUAAAAAAAAUAAAAACACAGAAGGGACAUGAGGAUCACCCAUGUAUAUA [May 21]	–	–	89.4 nM	53.4 nM
AAAUGCUGAGGAUAUACAUGAGGAUCACCCAUGUAAAAUAAAUAAAGGGUGUAAACGUGUAGAAGGCAGCAUAA [Exclusion 3.14e (FMN+ favored )]	–	–	39.4 nM	32.6 nM
GAGAGCCGAGGAUAUACAUGAGGAUCACCCAUGUAAAAAAAAAAAAAAAAAAAAUCAUGUAGAAGGCGGCUUUC [hsl_exclusion3]	–	–	234 nM	28.9 nM
AGGAAGUGAGGAUAUGCAUCAUAUAGUGGACGCUAUAGGAUGUAGAAGGCACAUGAGGAUCACCCAUGUUUAAA [EX4 Malc#40]	–	–	29 nM	32 nM
AACAGUACAGGAUAUACAUGAGGAUCACCCAUGUGAGAAUUAAGUGGCGUACCACAAAGUAGAAGGGUACUGGA [JL Maslow Revisted mod 16]	–	–	35 nM	173 nM
UAGGUACGAGGAUAUACAUAGAUACAGACACAUGUAGAUGUACAUGAGGAUCACCCAUGUAGAAGGCGUAUAUA [Mat - Same state - Mayanna Mod - D110]	–	–	52.6 nM	142 nM
AACAGUACAGGAUAUACAUGAGGAUCACCCAUGUGGGUAAAAAGAUCGAGAGAUCAAUGUAGAAGGGUACUGGA [JL In the Red 04]	–	–	259 nM	104 nM
AAAAAGUGAGGAUAUGUCAAAGGUCACGAAAGUGACAAAGGACAGAAGGCACAUGAGGAUCACCCAUGUGGGAA [Fiskers Exclusion 4D1 65% - Early + late G segment 1]	–	–	67.4 nM	77.6 nM
AAAACGUGAGGAUAUGCACCAAAAAAGGUAAUUCGGGUACGACAUGAGGAUCACCCAUGUAGAAGGCACGAAAA [Frodo Flailing 12 - Jieux - Exclusion 2]	–	–	29.9 nM	28.7 nM
AAAAAGGUAGGAUAUACGAAAAAAAAGGGUAGAAAAAUAAAACAUGAGGAUCACCCAUGUAGAAGGACCAAAAA [Ex 2 sub 1 70% 1]	–	–	25.8 nM	86.5 nM
AGCUAGUCAGGAUAUACGAACAGGUCAAAAGACUUGAAGGGACAUGAGGAUCACCCAUGUAGAAGGGACUAGCA [Mat - Exclusion 2 - JL mod - D25]	–	–	32.2 nM	128 nM

Sequence	apparent KD of MS2 coat protein (MS2 coat protein [1])	apparent KD of MS2 coat protein (MS2 coat protein [2])	apparent KD of MS2 coat protein (MS2 coat protein [3])	apparent KD of MS2 coat protein (MS2 coat protein [4])
AGGAUGUCAGGAUAUGUGUAAAGAAUAAAAGAAAUAACAACACAGAAGGGACAUGAGGAUCACCCAUGUUAAAA [May 35]	–	–	48.8 nM	44.3 nM
AGCUAGUCAGGAUAUACGCAAACGAACGAAGCAGUGAAGGGACAUGAGGAUCACCCAUGUAGAAGGGACUAGCA [Diamond 30]	–	–	26.8 nM	75.5 nM
AGAAUACAUGAGGAUCACCCAUGUGAGGAUAUGCAAAUAAAAAUAAAAUAAAAUAAUUGCAGAAGGCACGAAAG [EX 1 May 23]	–	–	44.4 nM	91.2 nM
AACAGUACAGGAUAUACAUGAGGAUCACCCAUGUCAGAAUUAAGCAGCGUAACACAAAGUAGAAGGGUAAUGGA [Ruby 18]	–	–	46 nM	41.1 nM
AGAAAGGCAGGAUAUACAUGAGGAUCACCCAUGUUAAGAAAGUGCGAAAGCACAAGAAGUAGAAGGGCCAAGAA [Rupert goes to college]	–	–	23.2 nM	19.2 nM
CCUCGACAUGAGGAUCACCCAUGUUAGGAUAUAUACAAACCCGAAAACCAAGGGCAAAAUAGAAGGAACGUGCA [Masoedma]	–	–	14.8 nM	19.2 nM
ACAGUUACAGGAUAUACAUGAAUAACUUCAAAGAAAACUCUACAUGAGGAUCACCCAUGUAGAAGGGUAACUGA [Ex2 Design 200 (fingers crossed): Random 18]	–	–	14.3 nM	18.8 nM
AAGAAGUAAGGAUAUGCUGCUCGUCACAAAAGUGAUGAGUAGCAGAAGGUACAUGAGGAUCACCCAUGUUAAGA [JL eternac mod 4]	–	–	24.4 nM	20.6 nM
AAGAGUAGAGGAUAUACAUGAAAAGAGUCGAAAGACUCAAAACAUGAGGAUCACCCAUGUAGAAGGCUACUCAA [Hyphema Seclusion Mod 62% 3]	–	–	137 nM	81.4 nM
AAGAAGUAAGGAUAUCGUGCUCGUCACAAAAGUGAUGAGUACGAGAAGGUACAUGAGGAUCACCCAUGUAAAGA [Opal 35]	–	–	24.6 nM	21.9 nM
AAAAACCGAGGAUAUACAUGAGGAUCACCCAUGUGAAAAAAAAAAAAGAGGAAAAGAUGUAGAAGGCGGAAAAA [65%, Moding Exclusion3-cac2, 17]	–	–	33.9 nM	44.1 nM
AAAAAGUCAGGAUAUGUCAAAGGUCACGAAAGUGACAAAGGACAGAAGGGACAUGAGGAUCACCCAUGUAAAAA [Fiskers Exclusion 4 D1]	–	–	53.5 nM	49.5 nM
AACUGUACAGGAUAUACAUGAGGAUCACCCAUGUGAGAAUUAAGUGGAGAACCACAAAGUAGAAGGGUACAGGA [Mat - Exclusion 3 - JL mod - D17]	–	–	45.7 nM	218 nM
CUCAUGUCAGGAUAUGUAGCAUGAUACGAAAGUAUCAUGCUACAGAAGGGACAUGAGGAUCACCCAUGUCAAAA [Ex4: 943]	–	–	22.1 nM	17.5 nM
AAAGGACGAGGAUAUACAUGAGGAUCACCCAUGUAAAAAACAUAGUAAAAGGGCUUGUGUAGAAGGCGUCCAAA [Meechl Ex3 2 R2 v10]	–	–	173 nM	35.6 nM
AAAAAGGGAGGAUAUACAUGAGGAUCACCCAUGUGAAAGACGAAAAAGAGUCUAAAAAGUAGAAGGCCCAAAAA [65%, Moding Exclusion3-cac2, 9]	–	–	33.5 nM	43 nM
AGAACGUCAGGAUAUGCAACAACAAGUAAAUAGAGAAGAAGGCAGAAGGGACAUGAGGAUCACCCAUGUAAGAA [e4]	–	–	44.1 nM	29.9 nM
